The labels stand for the following.
B1: HDV Ribozyme (parent)
chain: GGCCGGCAUGGUCCCAGCCUCCUCGCUGGCGCCGGCUGGGCAACAUUCCGAGGGGACCGUCCCCUCGGUAAUGGCGAAUGGGACCCA

In the data set the parent is B1. Briefly: self-cleavage, relative activity (ratio to wild type); higher = more cleavage; co-transcriptional.
For G40U U60A, the self-cleavage came to 0.795.

In the case of G40U U60G, the self-cleavage was 0.796.

For the variant G40U U60C, the self-cleavage was determined as 0.723.

As for C41A A87U, the self-cleavage turned out to be 0.866.

Consider C41A A87C, for which the self-cleavage was found to be 1.

As for C41A A87G, the self-cleavage came out at 0.883.

As to C41U G80A, the self-cleavage is 0.283.

Regarding C41G U46C, the self-cleavage was 0.297.

As to C41G U46A, the self-cleavage stood at 0.293.

Consider A42C C58A, for which the self-cleavage stood at 0.364.

In the case of C41U C61U, the self-cleavage stood at 0.946.

As to A42G, the self-cleavage turned out to be 0.562.

As to A42C, the self-cleavage was determined as 0.333.

Take A42C G67C: the self-cleavage came to 0.17.

Turning to A42C G67A, the self-cleavage was found to be 0.249.

Regarding C41A C57G, the self-cleavage came to 1.04.

Regarding C41A C57A, the self-cleavage is 1.02.

A42C A77G: the self-cleavage was determined as 0.156.

Consider G40U G80U, for which the self-cleavage was found to be 0.171.

Take C41U G50U: the self-cleavage was found to be 0.933.

On to C41U G50C, for which the self-cleavage was 0.67.

For the variant C41U G50A, the self-cleavage was 1.01.

A42C G80U: the self-cleavage was determined as 0.219.

For the variant A42C G80A, the self-cleavage amounted to 0.234.

C41A A45C: the self-cleavage stood at 0.504.

Consider C41A A45G, for which the self-cleavage worked out at 0.942.

Consider C41A A45U, for which the self-cleavage is 0.872.

As for C41A A83U, the self-cleavage is 0.35.

Regarding C41G U60C, the self-cleavage stood at 0.997.

Regarding C41G U60G, the self-cleavage came out at 0.72.

C41A G68A: the self-cleavage was determined as 1.01.

For C41A G68C, the self-cleavage is 0.665.

As to C41A G68U, the self-cleavage was found to be 0.561.

Regarding A42C C84A, the self-cleavage stood at 0.17.

For C41U A51G, the self-cleavage was 0.914.

Consider A42G A71U, for which the self-cleavage came to 0.502.

As for A42C C61G, the self-cleavage stood at 0.269.

With A42C C61U, the self-cleavage was 0.199.

As for A42C C61A, the self-cleavage was found to be 0.312.

C41U C62A: the self-cleavage was determined as 1.02.

Consider A42C A45G, for which the self-cleavage worked out at 0.465.

Regarding C41A G80A, the self-cleavage is 0.389.

In the case of C41A G80U, the self-cleavage turned out to be 0.187.

For the variant C41G G59A, the self-cleavage stood at 0.758.

Consider C41G G59C, for which the self-cleavage was 0.919.

As to A42C G81U, the self-cleavage is 0.16.

Take A42C G81A: the self-cleavage was 0.104.

For C41A G55U, the self-cleavage came out at 0.968.

C41G A77C: the self-cleavage came to 0.222.

In the case of C41G A77U, the self-cleavage stood at 0.185.

Turning to C41A C66U, the self-cleavage came out at 0.9.

For the variant G40U G67C, the self-cleavage amounted to 0.639.

Turning to G40U G67U, the self-cleavage is 0.757.

On to C41A C62U, for which the self-cleavage worked out at 0.869.

With C41A G53A, the self-cleavage is 0.967.

Regarding C41U A70U, the self-cleavage came to 0.936.

Take C41U G82C: the self-cleavage came to 0.136.

As to A42C A70U, the self-cleavage amounted to 0.312.

For A42C A70C, the self-cleavage amounted to 0.0875.

On to A42C C57G, for which the self-cleavage worked out at 0.237.

With A42C C57U, the self-cleavage is 0.203.

With A42G A43C, the self-cleavage was 0.158.

A42G A43U: the self-cleavage turned out to be 0.185.

As to A42G A43G, the self-cleavage was determined as 0.

Turning to C41G G81A, the self-cleavage was 0.188.

With C41U C57U, the self-cleavage is 1.12.

For the variant C41U U46C, the self-cleavage was found to be 0.734.

On to C41A A43U, for which the self-cleavage stood at 0.57.

Turning to C41A A43C, the self-cleavage was determined as 0.872.

C41U G52A: the self-cleavage was determined as 1.06.

Regarding C41U G54U, the self-cleavage is 0.931.

On to C41U G54C, for which the self-cleavage was found to be 0.63.

On to C41A U79C, for which the self-cleavage is 0.237.

Consider C41A U79G, for which the self-cleavage turned out to be 0.858.

As to A42C C64A, the self-cleavage came to 0.212.

On to A42C C64U, for which the self-cleavage is 0.208.

In the case of A42C C44A, the self-cleavage turned out to be 0.285.

For A42C C44U, the self-cleavage was found to be 0.161.

With C41G G53C, the self-cleavage worked out at 0.658.

In the case of C41G G53U, the self-cleavage worked out at 0.53.

Consider C41U C48A, for which the self-cleavage was determined as 1.07.

For C41G A56U, the self-cleavage is 0.746.

For the variant C41G A56G, the self-cleavage is 0.851.

On to G40U U65C, for which the self-cleavage stood at 0.7.

As to G40U U65G, the self-cleavage was found to be 0.546.

On to C41G A78U, for which the self-cleavage is 0.178.

With C41G A78G, the self-cleavage was determined as 0.208.

Regarding C41G A78C, the self-cleavage amounted to 0.0405.

On to A42C C85U, for which the self-cleavage came out at 0.415.

On to C41U A78U, for which the self-cleavage was 0.199.

On to C41U A78C, for which the self-cleavage stood at 0.178.

Turning to C41G G50U, the self-cleavage was found to be 0.708.

As to C41G A42U, the self-cleavage turned out to be 0.886.

Take C41U G59U: the self-cleavage was determined as 0.937.

C41U G59A: the self-cleavage was 1.

Take C41U G59C: the self-cleavage turned out to be 0.963.

Take C41G A87U: the self-cleavage is 0.788.

As for A42C C66G, the self-cleavage was 0.243.

Regarding A42C C66U, the self-cleavage was 0.489.

With A42C A51C, the self-cleavage was 0.0594.

With C41A G76U, the self-cleavage is 1.02.

Turning to A42C G68C, the self-cleavage is 0.198.

As for C41G C66G, the self-cleavage was 0.831.

On to C41G C66A, for which the self-cleavage turned out to be 0.96.

Turning to C41U A42U, the self-cleavage amounted to 0.831.

As for C41U A42G, the self-cleavage is 0.872.

With C41U A42C, the self-cleavage is 0.519.

With A42C G54C, the self-cleavage stood at 0.269.

Consider A42C G54U, for which the self-cleavage came out at 0.312.

C41G C75U: the self-cleavage was 0.095.

Turning to C41G C75A, the self-cleavage amounted to 0.353.

In the case of C41G C75G, the self-cleavage was 0.219.

Take A42G A51C: the self-cleavage came to 0.831.

In the case of A42G A51U, the self-cleavage was determined as 0.464.

As for C41A C49A, the self-cleavage turned out to be 0.519.

As to A42C A78C, the self-cleavage was 0.169.

Take A42C A78U: the self-cleavage was determined as 0.0449.

On to G40U G82C, for which the self-cleavage worked out at 0.157.

For the variant G40U G82A, the self-cleavage worked out at 0.256.

For G40U G82U, the self-cleavage was 0.171.

Turning to C41A A78C, the self-cleavage came to 0.185.

Take C41A A78G: the self-cleavage amounted to 0.534.

With C41U G74A, the self-cleavage amounted to 0.637.

On to A42G A56G, for which the self-cleavage was found to be 0.516.

With A42G A56U, the self-cleavage was found to be 0.698.

On to A42G A56C, for which the self-cleavage is 0.54.

In the case of A42C A43C, the self-cleavage stood at 0.

Consider A42C A43G, for which the self-cleavage worked out at 0.0898.

A42C A43U: the self-cleavage was 0.122.

As for C41U A71U, the self-cleavage came to 0.897.

Regarding C41A C58A, the self-cleavage amounted to 0.831.

As to C41A C58U, the self-cleavage came out at 0.778.

As for C41U G81U, the self-cleavage worked out at 0.205.

Turning to C41U G81C, the self-cleavage was 0.168.

As to C41U G81A, the self-cleavage was 0.237.

In the case of C41G C58G, the self-cleavage came out at 0.974.

Take C41U U47A: the self-cleavage came out at 0.96.

As to C41G C62G, the self-cleavage was 0.252.

For the variant C41U C58A, the self-cleavage is 0.962.

For C41U C58G, the self-cleavage stood at 0.889.

For C41U U72G, the self-cleavage is 0.534.

For C41U U72A, the self-cleavage was 0.656.

In the case of C41U U72C, the self-cleavage was found to be 0.375.

For the variant C41A C75G, the self-cleavage came out at 0.0773.

For C41A C75A, the self-cleavage stood at 0.208.

For the variant C41A C75U, the self-cleavage amounted to 0.145.

C41G C84U: the self-cleavage was 0.456.

With C41G C84G, the self-cleavage was determined as 0.665.

Consider C41G C84A, for which the self-cleavage turned out to be 0.508.

For C41G A43C, the self-cleavage stood at 0.308.

Turning to C41G A43G, the self-cleavage was 0.262.

For the variant C41G A43U, the self-cleavage is 0.277.

With C41G U47C, the self-cleavage stood at 0.633.

As for C41G U47G, the self-cleavage was found to be 0.598.

C41U U65A: the self-cleavage came out at 0.92.

As to C41A A71U, the self-cleavage stood at 0.665.

For the variant C41A A71G, the self-cleavage was determined as 0.91.

C41G C86A: the self-cleavage amounted to 1.14.

For the variant C41G C86G, the self-cleavage was found to be 0.914.

With A42G A78U, the self-cleavage came out at 0.162.

For A42G A77G, the self-cleavage came to 0.208.

As for G40U G76C, the self-cleavage was 0.492.

Consider G40U G76A, for which the self-cleavage is 0.789.

As to G40U G76U, the self-cleavage was found to be 0.795.

In the case of C41U G73U, the self-cleavage was determined as 0.511.

For the variant C41U C44U, the self-cleavage was 0.516.

As to C41A U60C, the self-cleavage came to 1.05.

(Values after the RNAGym collection of RNA variant scans (doi:10.7554/elife.80360).)
